Molecular target: T1, IRF4 DBD (human, UniProt Q15306 20-139)
T1 sequence: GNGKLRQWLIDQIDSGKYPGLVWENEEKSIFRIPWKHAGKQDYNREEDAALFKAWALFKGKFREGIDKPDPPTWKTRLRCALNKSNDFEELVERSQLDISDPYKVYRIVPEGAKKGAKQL
Assay: X-ray crystallography (native P/S SAD); three IRF4 DBD molecules on one ISRE; DNA:protein 1.2:1 mixed before crystallization; Crystallization complex: protein in 20 mM Tris-HCl pH 8, 500 mM NaCl, 0.5 mM TCEP (gel-filtration buffer); DNA:protein 1.2:1, 1 h at 277 K; crystallization conditions not in material
Conditions: protein: recombinant; tags: N-terminal 6xHis; chain copies: 3; 5' overhang 1 nt on each strand (A / T), 20 bp duplex

B1: ISRE 21-mer (dsDNA)
DNA 1: AATAAAAGAAACCGAAAGTAA
DNA 2: TTTACTTTCGGTTTCTTTTAT
binding result: binds
